This is an account of results in publication PMC4631590.

As a reminder, the stoichiometry N is the number of molecules, sites or subunits per partner or assembly.

For test [1], the target named is Corynebacterium ammoniagenes fatty-acid synthase type I (C. ammoniagenes). The test can be described thus: SEC; 0.1 M sodium phosphate pH 6.5, 0.1 M NaCl, 5 mM sodium malonate.
Test [2] addresses Corynebacterium efficiens fatty-acid synthase type I (FAS B) (C. efficiens) (UniProt Q8FMV7). Put plainly: SEC; Superose 6 XK 16/70; 0.1 M bis-tris propane pH 6.8, 0.2 M NaCl, 10% glycerol. (In general: Size exclusion chromatography separates by hydrodynamic size, large species first.)

The substance “Corynebacterium ammoniagenes fatty-acid synthase type I (enzyme)” registered a stoichiometry N in test [1] of 6.

In turn, “Corynebacterium efficiens fatty-acid synthase type I (FAS B) (from UniProt Q8FMV7 1-3022) (enzyme)” had a stoichiometry N in test [2] of 6.
